How the values were obtained:
[1] = biological target: endogenous Bcr-Abl of K562 cells (human leukemia Bcr-Abl+ cells; wild-type, unmutated) (human) (UniProt P11274)
[2] = biological target: p210 BCR-ABL1 T315I kinase domain mutant stably expressed in Ba/F3 cells (Homo sapiens (Human)) (UniProt P11274)
[3] = biological target: p210 Bcr-Abl (native, non-mutated) stably expressed in Ba/F3 cells (Homo sapiens (Human)) (UniProt P11274)
[4] = biological target: p210 BCR-ABL1 E255V kinase domain mutant stably expressed in Ba/F3 cells (Homo sapiens (Human)) (UniProt P11274)
[5] = biological target: p210 BCR-ABL1 T315I kinase domain mutant stably expressed in Ba/F3 cells (Homo sapiens (Human)) (UniProt P11274); remark: listed apart in the source
[6] = biological target: p210 BCR-ABL1 E255V/T315I compound mutant stably expressed in Ba/F3 cells (Homo sapiens (Human)) (UniProt P11274)

colony forming assay (transformative ability) of K562 cells (fold decrease) [1]	colony forming assay (transformative ability) of Ba/F3-p210-T315I cells [2]	apoptosis (Annexin V / 7-AAD, 72 h) of Ba/F3 cells expressing native BCR-ABL1 (fold increase) [3]	cell proliferation (MTS assay) of Ba/F3 cells expressing native BCR-ABL1 (fold reduction) [3]	cell proliferation (MTS assay) of Ba/F3 cells expressing BCR-ABL1 E255V (fold reduction) [4]	colony formation assay of Ba/F3 cells expressing BCR-ABL1 E255V (fold reduction) [4]	cell proliferation (MTS assay) of Ba/F3 cells expressing BCR-ABL1 T315I (fold reduction) [5]	colony formation assay of Ba/F3 cells expressing BCR-ABL1 T315I (fold reduction) [5]	colony formation assay of Ba/F3 cells expressing BCR-ABL1 E255V/T315I [6]	Binder
3	40%	–	–	–	–	–	–	–	EGFP-CC^mut3 (expressed from pEGFP-CC^mut3) (designed binder) MVDPVGFAEAWKAQFPDSEPPRMELRSVGDIEQELERAEARIRRDEQRVNQERFRMIYLETLLAKEKKSYDR
–	–	3	> 2	3	> 10	3	> 10	50%	mCherry-CC^mut3 fusion (expressed from pmCherry-CC^mut3) (designed binder) MVDPVGFAEAWKAQFPDSEPPRMELRSVGDIEQELERAEARIRRDEQRVNQERFRMIYLETLLAKEKKSYDR

Reference: US20170174750A1
